# B1: Camphor 5-monooxygenase, P00183 (parent)
# chain: MTTETIQSNANLAPLPPHVPEHLVFDFDMYNPSNLSAGVQEAWAVLQESNVPDLVWTRCNGGHWIATRGQLIREAYEDYRHFSSECPFIPREAGEAYDFIPTSMDPPEQRQFRALANQVVGMPVVDKLENRIQELACSLIESLRPQGQCNFTEDYAEPFPIRIFMLLAGLPEEDIPHLKYLTDQMTRPDGSMTFAEAKEALYDYLIPIIEQRRQKPGTDAISIVANGQVNGRPITSDEAKRMCGLLLVGGLDTVVNFLSFSMEFLAKSPEHRQELIERPERIPAACEELLRRFSLVADGRILTSDYEFHGVQLKKGDQILLPQMLSGLDERENACPMHVDFSRQKVSHTTFGHGSHLCLGQHLARREIIVTLKEWLTRIPDFSIAPGAQIQHKSGIVSGVQALPLVWDPATTKAV
# Variants of: B1
# Conditions: Pseudomonas putida; pH 7.4; Thermal; DSC; Tris 50 mM; KCl 100 mM; reversible: Yes; structure 2CPP; whole UniProt chain shown
Variant,Tm [°C],"change of melting temperature, mutant - wild type (higher = more stable) [°C]"
T102V,63.5,-1.8

# Reference: FireProtDB (doi:10.1021/bi060848l)
